Measured values published in paper PMC7595633 (PLoS Neglected Tropical Diseases, 2020).
Where “and” joins values, the source holds several entries; their conditions need not be identical. Identical values can stand only once.

Tests used:
[1] = target: the molecule itself; assay: native gel or EMSA; PhastGel gradient 8-25%, room temperature; 1 mg/mL (methods), 2 mg/mL (legend of Fig 1D); Coomassie stained
[2] = target: the molecule itself; assay: AUC; sedimentation equilibrium; tetramer to dimers; 0.5, 0.75 and 1.0 mg/mL; 8,000, 10,000 and 12,000 rpm, 4°C; global fit in SEDPHAT

B1: Trypanosoma brucei selenophosphate synthetase (TbSEPHS2), recombinant full-length (enzyme, UniProt Q38A34 1-393, looked up)
chain: MSEKEGKVIPETNGMKRPRFDPVKLGLPEEFTLTDYTRLKGCSCKVPQPELLALLQSVSTTPGRRDVGMDCSIVKLQHKDETGKPLYMVSTTDFFFPSVEDPYLQGQIGAANVLSDLYSTGIDRCDTVLMLLAASTDMDKTEREVCTQEMMKGFVDHVRLAGSDVTGGQTVMNPWPLIGGIATSVVAESQMIRPTGLQPGDILVLTKPLGCQIAVNLKQWLRRPSPIFEEQIQGKMDSEEIEELYNAAADGMKRLNRMAAALMHSHGAHGATDVTGFGILGHAKNLGSAQKADVCLVLDSLPMYRGAVKASKLMGDKYRLFEGYAAETSGGLLVAFGTREEAEGYIRELYETDGEPAWVVGRVVRREGSAPYALLQKDYKIIEVGAKVNDKII
notes: selenophosphate synthetase SEPHS2 of Trypanosoma brucei, Tb927.10.9410, 393 residues (from the limits of the truncated constructs); also called SPS2; TbSPSH2
stoichiometry N [1]: 2 and 4 | Kd [2]: 161 ± 10 µM
